Fewer inactive variants are shown than the library holds.
B1: TPR 5TU (parent)
chain: GGAUCUUCUCGAUCUAACAAAAAAGACAAAUCUGCCACAAAGCUUGAGAGCAUCUUCGGAUGCAGAGGCGGCAGCCUUCGGUGGCGCGAUAGCGCCAACGUUCUCAACUAUGACACGCAAAACGCGUGCUCCGUUGAAUGGAGUUUAUCAUG

Variants of: B1
Experiment: polymerase ribozyme fitness, log enrichment relative to wild type (log ratio); higher = more active; in vitro selection for triplet polymerase activity
Outline: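 Only genotypes with ≥10 input reads and ≥1 read per output were kept after Illumina sequencing of input and output libraries. These libraries were PCR-built, transcribed mutants of each subunit of a heterodimeric triplet polymerase ribozyme, each put through one triplicate in vitro selection round with frozen incubation at −7 °C, gel excision of extended constructs, streptavidin-bead capture and RT-PCR. Fitness is a logarithmic ratio of genotype enrichment to wild-type enrichment, from inverse-variance-weighted replicate averages, with the logarithm in base 2.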

| Variant | polymerase ribozyme fitness (log ratio) |
| --- | --- |
| GGAUCUUCUCGAUCUAACAAAAAAGACAAAUCUGCCACAAAGCUUGCGAGCAUCUUCGGAUGCAGAGGCGGCAGCCUUCGGUGGAGCGAUAGCGCCAACGUUCUCAACUAUGACACGCAAAACGCGUGCUCCGUUGAAUGGAGUUUAUCAUG [A47C C85A] | -2.92 |
| GGAUCUUCUCGAUCUAACAAAAAAGACAAAUCUGCCACAAAGCUUGAGAGCAUCUUCGGAUGCAGAGGCGGCAGCCUUCGGUGGCGCGAUAGCGCCUACGUUCUCAACUAUGACACGCAAAACGCGUGCUCCGUUGAAUGGAGAUUAUCAUG [A97U U144A] | -1.56 |
| GGAUCUUCUCGAUGUAACAAAAAAGACAAAUCUGCCACAAAGCUUGAGAGCAUCUUCGGAUGCAGAGGCGGCAGCCUUCGGUGGCGCGAUAGCGCUAACGUUCUCAACUAUGACACGCAAAACGCGUGCUCCGCUGAAUGGAGUUUAUCAUG [C14G C96U U134C] | -2.72 |
| GGAUCUUCUCGAUCUAACAAAAAAGACAAAUCUGCCACAAAGCUUGAGAGCAUCUUCGGAUGCAGAGGCGGCAGCAUUCGGUGGCGCGAUAGCGCCAACGUUCUCAACUAUGACACGCAAAACGCGUGCUCCGUUGUAUGGAGUUUAUCAUG [C76A A137U] | -3.9 |
| GGAUCUUCUCGACCUAACAAAAAAGACAAAUCUGCCACAAAGCUUGAGAGUAUCUUCGCAUGCAGAGGCGGCAGCCUUCGGUGGCGCGAUAUCGCCAACGUUCUCAACUAUGACGCGCAAAACGCGUGCUCCGUUGAAUGGACUUUAUCAUG [U13C C51U G59C G92U A115G G143C] | -3.61 |
| GGAUCUUCUCGAUCUAACAAAAAAGACAAAUCUGCCACAAAGCUUGAGCGCAUCUUCGGAUGCAGAGGCGGCAGCCUUCGGUGGCGCGAUAGUGCCAACGUUCUCAACUAUGACACGCAAAACGCGUGCUCCAUUGAAUGGAGUUUAUCAUG [A49C C93U G133A] | ≤ -4.2 |
| GGAUCCUCUCGAUCUAACAAAAAAGACAAAUUUGCCACAAAGCUUGAGAGCAUAUUCGGAUGCAGAGGCGGCAGCCUUCGGUGGCGCGAUAGCGCCAACGUUCUCAACUAUGACACGCAAAACGCGUGCUCCGUUGAAUGGAGUUUAUCAUG [U6C C32U C54A] | -4 |
| GGAUCUUCUCGAUCUAACAAAAAAGACAAAUCUGCCACAACGCUUGAGAGCAUCUUCGGAUGCAGAGGCGGCAGCCUUCGGUGGCGCGAUAUCGCCAACGUUUUCAACUAUGACACGCAAAAGGCGUGCUCCGUUGAAUGGAGUUUAUCAUG [A41C G92U C103U C123G] | -1.2 |
| GGAUCUUCUCGAUGUAACAAAAAAGACAAAUCUGCCACAAAGCUUGAGAGCAACUUCGGAUGCAGAGGCGGCAGCCUUCGGUGCCGCGAUAUCGACAACGUUCUCAGCUAUGACACGCUAAACGCGUGCUCCGUUGAAUGGAGUUUAUCAUG [C14G U53A G84C G92U C95A A107G A119U] | ≤ -4.2 |
| GGAUCUUCUCGAUCUAACAAAAAAGACAAAUCUGCCACAAAGCUUGAGAGCAUCUACGGAUGCAGAGGCGGCAGCCUUCGGUAGCGCGAUAGCGCCAACGUUCUCAACUAUGACACGCAAAACGCGUGCUCCGUUGAAUGGAGUUUAUCAUG [U56A G83A] | -0.831 |
| GGAUCUUCUCGAUCUAACAAAAUAGACAAAUCUGCCACAAAGCUUGAAAGCAUCUUCGGAUGCAGAGGCGGCAGCCUUCGGUGGCGGGAUAGCGCCAACGUUCCCAACUAUGACACGCAAAACGCGUGCUCCGUUGAAUGGAGUUUAUCAUG [A23U G48A C87G U104C] | ≤ -4.2 |
| GGAUCUUCUCGAUCUAACAAAUAGGACAAAUCUGCCACAAAGUUUGAGAGCAUCUUGGAAUGCAGAGGCGGCAGCCUUCGGUGGCGCGGUACCGCCAACGUUCUCAACUAUGACACGCAAAACGCGUGCUCCGUAGAAUGGAGUUUAUCAUG [A22U A24G C43U C57G G59A A89G G92C U135A] | ≤ -4.2 |
| GGAUCUUCUCGAUCUAACAAAAAAGACAAAUCUGCCACAAAGCUUGAGAGCAUCUUCGGAUGCAGAGGCGGCAGUCUUCGGUGGCGCGAUAACGCCAACGUUCUCAACUAUGACACGCAAAACGCGUGCUCCGUUGAAUGGAGUUUAUCAUG [C75U G92A] | -2.99 |
| GGAUCUUCUCGAUCUAACAAAAAAGACAAAUCUGCCACAAAGCUUGCGAGCAUCUUCGGCUGCAGAGGCGGGAGCCGUCGGUGGCGGUAUAGCGCCAACGUUCUCAACUUUGACACGCGAAACGCGUGCUCCGUUGAAUGGAGUUUCUCAUG [A47C A60C C72G U77G C87G G88U A110U A119G A147C] | ≤ -4.2 |
| GGAUCUACUCGAUCUAUCAAAAAACACAAAUCUGCCACAAAGCUUGAGAGCAUCUUCGGAUGCAGAGGCGGCAGCCUUCGGUGGCGCCAUAGCGCCAACGUUCUCAACUAUGACAAGCAAAACGCGUGCUCCGUUGAAUGGAGUUUAUCAUG [U7A A17U G25C G88C C116A] | ≤ -4.2 |
| GGAUCUUCUCGAUCCAACAAAAAAGGCAAAUCUGCCACAAAGCGUGAGAGCAUUUUCGGAUGUAGAGGCGGCAGCCUUCGGUGGCGGGACAGCGCCAACGUUCUCAACUAUGACACGCAAAACGCGUGCUCCGUUGAAUGGAGUUUAUCAUG [U15C A26G U44G C54U C63U C87G U90C] | ≤ -4.2 |
| GGAUCUACUCGAUGUAACAAAAAAGACAAACCUGCCACAAAGCUUGAGAGCAUCUUCGGAUGCAGAGGCGGCAGCCUUCGGUGGCACGAUAGCGCCAACGUUCUCAACUAUGACACGCAAAACGCGUGCUCCGUUGAAUGGAGUUUAUCAUG [U7A C14G U31C G86A] | ≤ -4.2 |
| GGAUCUUCUCGAUCUAACAAAAAAGACAAAUCUGCCGCAAAGCUUGAGAUCAUCUUCGGAUGCAGAGGCGGUAGCCUUCGGUGGCGCGAUAGCGCCAACGUUCUGAACUAUGACACGCAAAACGCGUGCUCCGUUGAACGGAGUUUAUCAUG [A37G G50U C72U C105G U139C] | ≤ -4.2 |
| GGAUCUUCUCGAUCUAACAAAAAAGACAAAUCUGCCACAAAGCUUGAGAGCAUCUUCGGAUGCAGAUGCGGCAGCCUUCGGUGGCGCGAUAGCGCGAACGUUCUCAACUAUGACACGCAAAACGCGUGCUCCGUUGAAUGGAGUUUAUCAUG [G67U C96G] | -3.31 |

From the RNAGym collection of RNA variant scans (doi:10.1073/pnas.2313332121)
